The source of these data is patent publication US20250320281A1.

One may read the IC50 as the point on the concentration scale where inhibition reaches its midpoint.

Assay in all cases: cell-based or functional assay
The target in assay [1] is HIV-1 Env of isolate APV_6, clade B, on pseudovirus (HIV-1).
Assay [2] concerns the target HIV-1 Env of isolate MGRM-D-005 (clade D pseudovirus) (HIV-1).
The target of assay [3] is HIV-1 Env of isolate MGRM-D-028 (clade D pseudovirus) (HIV-1).
The target of assay [4] is HIV-1 Env of isolate NL43, clade B, on pseudovirus (HIV-1).
The target in assay [5] is HIV-1 Env of pseudovirus MGRM-AE-003 (clade CRF01_AE) (HIV-1).
Assay [6] addresses HIV-1 Env of pseudovirus MGRM-AG-011 (clade CRF_AG) (HIV-1).
The target of assay [7] is HIV-1 Env of pseudovirus MGRM-AG-013 (clade CRF_AG) (HIV-1).
Assay [8] concerns the target HIV-1 Env of pseudovirus MGRM-F1-006 (HIV-1).
In assay [9] the target is HIV-1 Env of pseudovirus MGRM-F1-012 (HIV-1).
Assay [10] addresses HIV-1 Env of pseudovirus MGRM-F1-015 (HIV-1).
Assay [11] has as its target HIV-1 Env of pseudovirus MGRM-F1-016 (HIV-1).
The target of assay [12] is HIV-1 Env of pseudovirus MGRM-G-001 (clade G) (HIV-1).
In assay [13] the target is HIV-1 envelope glycoprotein (Env) of isolate 93RW029, clade A (HIV-1).
For assay [14], the target named is HIV-1 Env of isolate MGRM-G-011 (HIV-1).
In assay [15] the target is HIV-1 JRFL Env (pseudovirus) (HIV-1).
Assay [16] has as its target HIV-1 Env of isolate MGRM-F1-017 (HIV-1).
The target of assay [17] is HIV-1 Env of isolate 92BR020 (HIV-1).

A value given as a limit tells only on which side of the number the result lay.

Chain of 1443_C16 (PG16) (TCN-116) (antibody) (VH): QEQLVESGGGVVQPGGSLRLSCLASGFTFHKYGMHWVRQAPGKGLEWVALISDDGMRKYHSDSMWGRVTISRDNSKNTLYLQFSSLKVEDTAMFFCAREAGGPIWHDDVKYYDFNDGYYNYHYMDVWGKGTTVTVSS
Chain of 1443_C16 (PG16) (TCN-116) (antibody) (VL): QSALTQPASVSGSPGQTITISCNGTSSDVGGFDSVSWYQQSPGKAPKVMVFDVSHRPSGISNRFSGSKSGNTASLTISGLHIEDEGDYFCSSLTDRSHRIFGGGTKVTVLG
Chain of 4995_E20 (PGT-142) (antibody) (VH): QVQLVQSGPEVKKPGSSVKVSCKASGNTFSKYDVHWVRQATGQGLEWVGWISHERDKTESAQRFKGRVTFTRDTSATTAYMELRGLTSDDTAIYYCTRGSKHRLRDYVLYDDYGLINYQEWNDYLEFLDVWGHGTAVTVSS
Chain of 4995_E20 (PGT-142) (antibody) (VL): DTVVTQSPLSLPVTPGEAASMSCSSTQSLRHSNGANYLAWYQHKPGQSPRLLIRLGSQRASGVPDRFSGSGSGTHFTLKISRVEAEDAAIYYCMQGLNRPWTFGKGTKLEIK
Chain of 4993_K13 (PGT-141) (antibody) (VH): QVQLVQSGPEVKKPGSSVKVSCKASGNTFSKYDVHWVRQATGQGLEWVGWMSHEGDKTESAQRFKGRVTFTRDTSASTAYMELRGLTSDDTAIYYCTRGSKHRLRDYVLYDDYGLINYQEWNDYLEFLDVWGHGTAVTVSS
Chain of 4970_K22 (PGT-144) (antibody) (VH): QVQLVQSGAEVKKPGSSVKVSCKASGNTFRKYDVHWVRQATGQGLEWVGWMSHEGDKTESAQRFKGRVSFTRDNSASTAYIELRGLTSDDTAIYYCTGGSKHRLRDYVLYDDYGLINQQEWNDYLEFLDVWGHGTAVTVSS
Chain of 4970_K22 (PGT-144) (antibody) (VL): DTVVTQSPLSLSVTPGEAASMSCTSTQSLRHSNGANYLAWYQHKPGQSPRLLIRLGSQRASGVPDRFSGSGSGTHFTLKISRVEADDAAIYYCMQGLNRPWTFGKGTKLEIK
Chain of 4980_N08 (PGT-143) (antibody) (VH): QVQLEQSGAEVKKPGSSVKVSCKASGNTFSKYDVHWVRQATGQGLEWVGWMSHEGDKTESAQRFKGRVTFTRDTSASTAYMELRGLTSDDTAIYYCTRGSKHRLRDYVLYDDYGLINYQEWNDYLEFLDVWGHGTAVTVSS
Chain of 4980_N08 (PGT-143) (antibody) (VL): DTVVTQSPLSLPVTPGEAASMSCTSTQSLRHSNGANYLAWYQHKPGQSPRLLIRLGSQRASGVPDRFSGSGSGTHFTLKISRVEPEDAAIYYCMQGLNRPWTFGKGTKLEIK

As for 1443_C16 (PG16) (TCN-116) (antibody), the IC50 (µg/ml), pseudovirus neutralization in assay [1] was 0.29 µg/mL; in assay [2], 19.7 µg/mL; in assay [3], greater than 50 µg/mL; in [4], 0.02 µg/mL; in assay [8] it was 0.27 µg/mL; in assay [9], 0.003 µg/mL. Also, the IC50 (µg/ml), pseudovirus neutralization is greater than 50 µg/mL in assay [10], 1.12 µg/mL in [11] and 3.83 µg/mL in assay [13]. Moreover, the 50% inhibitory concentration (IC50) worked out at 0.03 µg/mL in assay [5], 0.002 µg/mL in assay [6], 0.31 µg/mL in assay [7] and 0.15 µg/mL in assay [12].
Take 2G12 (antibody): the IC50 (µg/ml), pseudovirus neutralization in assay [1] is 1.9 µg/mL; in assay [2] it was 25.7 µg/mL; in assay [3], greater than 50 µg/mL; in assay [4], 0.49 µg/mL; in assay [8], greater than 50 µg/mL; in assay [9], 1.81 µg/mL. In addition, the IC50 (µg/ml), pseudovirus neutralization in assay [10], in assay [11] and in [13] was greater than 50 µg/mL in each case. The IC50 in assay [5] is greater than 50 µg/mL; in assay [6], greater than 50 µg/mL; in [7] it was 0.95 µg/mL; in [12], greater than 50 µg/mL.
4970_K22 (PGT-144) (antibody) came in with an IC50 (µg/mL), pseudovirus neutralization in assay [14] of 1.58 µg/mL. Also, in assay [15], the IC50 (neutralizing activity, pseudovirus) is greater than 10 µg/mL.
The substance 4980_N08 (PGT-143) (antibody) showed an IC50 (µg/mL), pseudovirus neutralization in assay [14] of 0.074 µg/mL. Besides, the IC50 (neutralizing activity, pseudovirus) in assay [15] was greater than 10 µg/mL.
In the case of 4E10 (antibody), the IC50 (µg/ml), pseudovirus neutralization in assay [1] turned out to be 1.1 µg/mL; in assay [2], 35.2 µg/mL; in [3], 1.28 µg/mL; in assay [4], 4.67 µg/mL; in [8], 1.01 µg/mL; in assay [9], 0.37 µg/mL. The IC50 (µg/ml), pseudovirus neutralization in [10] is 0.53 µg/mL; in assay [11] it was 7.61 µg/mL; in assay [13] it was 15.5 µg/mL. For the same substance, the concentration for half-maximal inhibition (IC50) in [5] was 0.34 µg/mL; in assay [6], 1.36 µg/mL; in assay [7], 2.61 µg/mL; in assay [12] it was 2.04 µg/mL.
The substance 4995_E20 (PGT-142) (antibody) gave an IC50 (µg/mL), pseudovirus neutralization in assay [14] of 0.046 µg/mL. In [15], this substance gave an IC50 (neutralizing activity, pseudovirus) greater than 10 µg/mL.
b12 (antibody): the IC50 (µg/ml), pseudovirus neutralization in assay [1] is greater than 50 µg/mL; in assay [2], greater than 50 µg/mL; in [3], 0.78 µg/mL; in assay [4], 0.17 µg/mL; in assay [8] it was greater than 50 µg/mL; in [9] it was greater than 50 µg/mL. Besides, the IC50 (µg/ml), pseudovirus neutralization in [10], in assay [11] and in assay [13] was greater than 50 µg/mL throughout. Besides, the 50% inhibitory concentration (IC50) in assay [5], in [6], in assay [7] and in assay [12] was greater than 50 µg/mL each time.
For VRC01 (antibody), in [16], the IC50 stood at 1.08 µg/mL. Also, the IC50 (µg/mL), pseudovirus neutralization in assay [14] is 0.065 µg/mL.
4993_K13 (PGT-141) (antibody) gave an IC50 (µg/mL), pseudovirus neutralization in assay [14] of 0.086 µg/mL. In addition, in [15], the IC50 (neutralizing activity, pseudovirus) is greater than 10 µg/mL.
For 1496_C09 (PG9) (TCN-109) (antibody), the IC50 (µg/ml), pseudovirus neutralization in assay [1] was 0.12 µg/mL; in [2], 0.59 µg/mL; in [3] it was 4.39 µg/mL; in assay [4] it was 0.32 µg/mL; in [8], 1.45 µg/mL; in assay [9], 0.01 µg/mL. Further, the values for the IC50 (µg/ml), pseudovirus neutralization in [11] and in [13] were 0.58 µg/mL and 1.19 µg/mL, respectively. Moreover, the IC50 (µg/mL), pseudovirus neutralization in [14] turned out to be 0.335 µg/mL. The concentration for half-maximal inhibition (IC50) came out at 0.01 µg/mL in assay [6], 0.23 µg/mL in assay [7] and 0.16 µg/mL in assay [12].
Turning to PGV04 (antibody), the values for the IC50 (µg/mL), pseudovirus neutralization in [17] and in assay [14] were 0.25 µg/mL and 0.78 µg/mL, respectively.
